Test results reported in patent US20190040130A1 (Alector, published 2019).
Blank lines part the entries; values can stand above or below the binder they belong to.

Tests used:
[1] = target: T1, human TREM2 expressed on cells (human, UniProt Q9NZC2 19-230); experiment: FACS, BW cells
T1 construct: also called huT2 BW; cell expressed TREM2
T1 sequence: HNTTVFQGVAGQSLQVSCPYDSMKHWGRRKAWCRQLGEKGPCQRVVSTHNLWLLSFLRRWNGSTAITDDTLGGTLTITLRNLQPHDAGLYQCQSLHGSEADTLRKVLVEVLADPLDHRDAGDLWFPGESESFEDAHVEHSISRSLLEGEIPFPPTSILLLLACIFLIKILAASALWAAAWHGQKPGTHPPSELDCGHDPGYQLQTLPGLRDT
Protocol: To examine cell binding of anti-TREM2 antibodies, recombinant, human TREM2-expressing BW5147. G.1.4 cells (ATCC® TIB48™) were established by stably expressing either mouse TREM2 or human TREM2 together with Dap12 using viral infection. Cells were harvested by scraping, washed in PBS, counted and plated on 96-well U bottom plates at 1×10⁵ cells/well. The plates were spun at 1,400 rpm for 3 minutes and primary anti-TREM2 or control antibodies were added in FACS buffer (PBS+2% FBS) and incubated on ice for one hour. Cells were subsequently centrifuged as before and washed thrice with FACS buffer. Cells were then incubated with anti-human PE conjugated secondary antibody (BD Biosciences) in FACS buffer for 30 minutes on ice. Cells were again washed thrice with FACS buffer and analyzed on a BD FACS Canto. Binding was measured as mean fluorescence intensity in the […].

[2] = target: T2, human TREM2/DAP12 fusion protein in BW5147.G.1.4 NFAT-luciferase reporter cells (human, UniProt O43914 41-113, limits assumed); experiment: cell-based or functional assay
[3] = target: T2, human TREM2/DAP12 fusion protein in …; experiment: cell-based or functional assay; remark: listed apart in the source
[4] = target: T2, human TREM2/DAP12 fusion protein in …; experiment: cell-based or functional assay; remark: listed apart in the source
[5] = target: T1, human TREM2 expressed on cells; experiment: cell-based or functional assay
[6] = target: T2, human TREM2/DAP12 fusion protein in …; experiment: cell-based or functional assay; remark: listed apart in the source
[7] = target: T2, human TREM2/DAP12 fusion protein in …; experiment: cell-based or functional assay; remark: listed apart in the source
[8] = target: T2, human TREM2/DAP12 fusion protein in …; experiment: cell-based or functional assay; remark: listed apart in the source
[9] = target: T2, human TREM2/DAP12 fusion protein in …; experiment: cell-based or functional assay; remark: listed apart in the source

Cell binding (FOB) [1]: 79 fold over background
EC50 (read off the curve); NFAT:luciferase luminescence, BWZ reporter cells co-cultured 1:1 with THP-1 cells, 6 h [2]: ~1 µg/mL
EC50 (read off the curve); NFAT:luciferase luminescence, BWZ reporter cells, soluble antibody, 6 h [3]: ~2 µg/mL
B1: AL2p (parental mouse anti-TREM2 antibody) (antibody, human IgG1, V domains shown)
VH: QVQLQQSGPELVKPGASLKISCKASGYAFSSSWMNWVKQRPGKGLEWIGRIYPGDGDTNYNGEFRVRATLTADTSSTTAYMQLSSLTSEDSAVYFCARLLRNQPGESYAMDYWGQGASVTVSS
VL: DVVMTQTPLSLPVSLGDQASISCRSSQSLVHSNGYTYLHWYLQKPGQSPKLLIYKVSNRFSGVPDRFSGSGSGTDFTLKISRVEADDLGVYFCSQSTRVPYTFGGGTKLEIK
notes: Mouse variable regions; tested as Fab, as human-mouse chimera (human IgG1 Fc) and as msIgG1; see assay; also called 9F5; 9F5a

Cell binding (FOB) [1]: 78 fold over background
B2: AL2p-h27 (antibody, IgG1, V domains shown)
VH: QVQLVQSGAEVKKPGASVKVSCKASGYAFSSSWMNWVRQAPGQGLEWIGRIYPGDGDTNYNGEFRVRATLTADTSTSTAYMELSSLRSEDTAVYFCARLLRNQPGESYAMDYWGQGTLVTVSS
VL: DVVMTQTPLSLSVTPGQPASISCRSSQSLVHSNGYTYLHWYLQKPGQSPQLLIYKVSNRFSGVPDRFSGSGSGTDFTLKISRVEAEDLGVYFCSQSTRVPYTFGQGTKLEIK
notes: IgG1; Fab in monovalent BLI

Cell binding (FOB) [1]: 69 fold over background
B3: AL2p-h24 (antibody, IgG1, V domains shown)
VH: QVQLVQSGAEVVKPGASLKISCKASGYAFSSSWMNWVRQAPGQGLEWIGRIYPGDGDTNYNQKFQGRATLTADTSTSTAYMELSSLRSEDTAVYFCARLLRNQPGESYAMDYWGQGALVTVSS
VL: DVVMTQTPLSLSVTPGQPASISCRSSQSLVHSNGYTYLHWYLQKPGQSPQLLIYKVSNRFSGVPDRFSGSGSGTDFTLKISRVEAEDLGVYFCSQSTRVPYTFGQGTKLEIK
notes: IgG1; Fab in monovalent BLI

EC50 (read off the curve); NFAT:luciferase luminescence, BWZ reporter cells co-cultured 1:1 with THP-1 cells, 6 h [2]: ~0.3 µg/mL
B4: AL2p huIgG1 E430G (antibody, V domains shown)
VH: QVQLQQSGPELVKPGASLKISCKASGYAFSSSWMNWVKQRPGKGLEWIGRIYPGDGDTNYNGEFRVRATLTADTSSTTAYMQLSSLTSEDSAVYFCARLLRNQPGESYAMDYWGQGASVTVSS
VL: DVVMTQTPLSLPVSLGDQASISCRSSQSLVHSNGYTYLHWYLQKPGQSPKLLIYKVSNRFSGVPDRFSGSGSGTDFTLKISRVEADDLGVYFCSQSTRVPYTFGGGTKLEIK

Cell binding (FOB) [1]: 81 fold over background
B5: AL2p-h32 (antibody, IgG1, V domains shown)
VH: QVQLVQSGAEVKKPGSSVKVSCKASGYAFSSSWMNWVRQAPGQGLEWIGRIYPGDGDTNYNGEFRVRATLTADTSTTTAYMELSSLRSEDTAVYFCARLLRNQPGESYAMDYWGQGTLVTVSS
VL: DVVMTQTPLSLSVTPGQPASISCRSSQSLVHSNGYTYLHWYLQKPGQSPQLLIYKVSNRFSGVPDRFSGSGSGTDFTLKISRVEAEDLGVYFCSQSTRVPYTFGQGTKLEIK
notes: IgG1; Fab in monovalent BLI

Cell binding (FOB) [1]: 90 fold over background
B6: AL2p-h25 (antibody, IgG1, V domains shown)
VH: QVQLVQSGAEVKKPGASLKISCKASGYAFSSSWMNWVRQAPGQGLEWIGRIYPGDGDTNYNGEFRVRATLTADTSTSTAYMELSSLRSEDTAVYYCARLLRNQPGESYAMDYWGQGALVTVSS
VL: DVVMTQTPLSLSVTPGQPASISCRSSQSLVHSNGYTYLHWYLQKPGQSPQLLIYKVSNRFSGVPDRFSGSGSGTDFTLKISRVEAEDLGVYFCSQSTRVPYTFGQGTKLEIK
notes: IgG1; Fab in monovalent BLI

EC50 (read off the curve); NFAT:luciferase luminescence, BW reporter cells, soluble IgG [4]: ~1 µg/mL
B7: AL2p-58 (antibody, V domains shown)
VH: QVQLVQSGAEVKKPGASVKVSCKASGYAFSSQWMNWVRQAPGQRLEWIGRIYPGGGDTNYAGKFQGRVTITADTSASTAYMELSSLRSEDTAVYYCARLLRNQPGESYAMDYWGQGTLVTVSS
VL: DVVMTQSPDSLAVSLGERATINCRSSQSLVHSNRYTYLHWYQQKPGQSPKLLIYKVSNRFSGVPDRFSGSGSGTDFTLKISRVEAEDVGVYYCSQSTRVPYTFGQGTKLEIK

Cell binding (FOB) [1]: 91 fold over background
B8: AL2p-h43 (antibody, IgG1, V domains shown)
VH: QVQLVQSGAEVKKPGASLKVSCKASGYAFSSSWMNWVRQAPGQRLEWIGRIYPGDGDTNYNGEFRVRATLTADTSASTAYMELSSLRSEDTAVYFCARLLRNQPGESYAMDYWGQGTLVTVSS
VL: DVVMTQTPLSLSVTPGQPASISCRSSQSLVHSNGYTYLHWYLQKPGQSPQLLIYKVSNRFSGVPDRFSGSGSGTDFTLKISRVEAEDVGVYYCSQSTRVPYTFGQGTKLEIK
notes: IgG1; Fab in monovalent BLI

B9: AL2p-60 (antibody, IgG1, V domains shown)
VH: QVQLVQSGAEVKKPGSSVKVSCKASGYAFSSQWMNWVRQAPGQGLEWMGRIYPGGGDTNYARKFQGRVTITADESTSTAYMELSSLRSEDTAVYYCARLLRNQPGESYAMDYWGQGTLVTVSS
VL: GVVMTQTPLSLSVTPGQPASISCRSSQSLVHSNRYTYLHWYLQKPGQSPQLLIYKVSNRRSGVPDRFSGSGSGTDFTLKISRVEAEDVGVYYCSQSTRVPYTFGQGTKLEIK
viability EC50, dendritic cells D558 [5]: 0.152 nM
viability EC50, dendritic cells D559 [5]: 0.244 nM
viability EC50, dendritic cells D560 [5]: 0.178 nM
viability EC50, macrophages D559 [5]: 0.194 nM
viability EC50, macrophages D560 [5]: 0.154 nM

Cell binding (FOB) [1]: 126 fold over background
B10: AL2p-h90 (antibody, IgG1, V domains shown)
VH: QVQLVQSGAEVKKPGASVKVSCKASGYAFSSSWMNWVRQAPGQRLEWIGRIYPGDGDTNYAQKFQGRVTITADTSASTAYMELSSLRSEDTAVYYCARLLRNQPGESYAMDYWGQGTLVTVSS
VL: DVQMTQSPSSLSASVGDRVTITCRSSQSLVHSNGYTYLHWYQQKPGKSPKLLIYKVSNRFSGVPSRFSGSGSGTDFTLTISSLQPEDFATYYCSQSTRVPYTFGGGTKVEIK
notes: IgG1; Fab in monovalent BLI

EC50 (read off the curve); NFAT:luciferase luminescence, BWZ reporter cells, soluble IgG [6]: ~0.7 µg/mL
B11: AL2p-58 msFc (antibody)
chain 1: QVQLVQSGAEVKKPGASVKVSCKASGYAFSSQWMNWVRQAPGQRLEWIGRIYPGGGDTNYAGKFQGRVTITADTSASTAYMELSSLRSEDTAVYYCARLLRNQPGESYAMDYWGQGTLVTVSS
chain 2: DVVMTQSPDSLAVSLGERATINCRSSQSLVHSNRYTYLHWYQQKPGQSPKLLIYKVSNRFSGVPDRFSGSGSGTDFTLKISRVEAEDVGVYYCSQSTRVPYTFGQGTKLEIK

Luciferase activation plate bound 33 nM IgG [7]: 22.1 FOC
B12: AL2p-14 (antibody, IgG1, V domains shown)
VH: QVQLVQSGAEVKKPGSSVKVSCKASGYAFSSHWMNWVRQAPGQGLEWMGRIYPGDGDTNYAQKFQGRVTITADESTSTAYMELSSLRSEDTAVYYCARLLRNQPGESYAMDYWGQGTLVTVSS
VL: GVVMTQTPLSLSVTPGQPASISCRSSRSLVHSNGYTYLHWYLQKPGQSPQLLIYKVSNRFSGVPDRFSGSGSGTDFTLKISRVEAEDVGVYYCSQSTRVPYTFGQGTKLEIK

Cell binding (FOB) [1]: 86 fold over background
Soluble luciferase activation at 10 µg/ml [8]: 6.52 fold over control
B13: AL2p-h76 (antibody, IgG1, V domains shown)
VH: QVQLVQSGAEVKKPGASVKVSCKASGYAFSSSWMNWVRQAPGQRLEWIGRIYPGDGDTNYAQKFQGRATITADTSASTAYMELSSLRSEDTAVYFCARLLRNQPGESYAMDYWGQGTLVTVSS
VL: DVVMTQSPDSLAVSLGERATINCRSSQSLVHSNGYTYLHWYQQKPGQSPKLLIYKVSNRFSGVPDRFSGSGSGTDFTLTISSLQAEDVAVYYCSQSTRVPYTFGGGTKVEIK
notes: IgG1; Fab in monovalent BLI

EC50 (read off the curve); NFAT:luciferase luminescence, BW reporter cells, soluble IgG [4]: ~2 µg/mL
B14: AL2p-59 (antibody, V domains shown)
VH: QVQLVQSGAEVKKPGSSVKVSCKASGYAFSSHWMNWVRQAPGQGLEWMGRIYPGEGQTNYAQKRQGRVTITADESTSTAYMELSSLRSEDTAVYYCARLLRNQPGESYAMDYWGQGTLVTVSS
VL: GVVMTQTPLSLSVTPGQPASISCRTSQSLVHSNQYTYLHWYLQKPGQSPQLLIYKVSNRVSGVPDRFSGSGSGTDFTLKISRVEAEDVGVYYCSQSTRVPYTFGQGTKLEIK

plate bound signal activation, fold over AL2p [9]: 10 fold
B15: AL2p-58 huIgG1 PSEG (antibody)
heavy: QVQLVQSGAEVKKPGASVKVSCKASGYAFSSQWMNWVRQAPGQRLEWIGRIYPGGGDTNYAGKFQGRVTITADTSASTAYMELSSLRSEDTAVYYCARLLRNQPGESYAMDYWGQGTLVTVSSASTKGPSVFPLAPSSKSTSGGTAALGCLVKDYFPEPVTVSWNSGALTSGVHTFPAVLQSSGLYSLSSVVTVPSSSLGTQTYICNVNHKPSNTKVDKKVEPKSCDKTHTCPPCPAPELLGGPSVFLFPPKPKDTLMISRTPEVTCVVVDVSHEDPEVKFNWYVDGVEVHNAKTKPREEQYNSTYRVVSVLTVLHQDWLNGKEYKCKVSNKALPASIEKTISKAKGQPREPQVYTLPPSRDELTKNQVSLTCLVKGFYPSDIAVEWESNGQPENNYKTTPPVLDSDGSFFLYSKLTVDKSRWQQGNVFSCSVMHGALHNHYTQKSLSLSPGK
light: DVVMTQSPDSLAVSLGERATINCRSSQSLVHSNRYTYLHWYQQKPGQSPKLLIYKVSNRFSGVPDRFSGSGSGTDFTLKISRVEAEDVGVYYCSQSTRVPYTFGQGTKLEIKRTVAAPSVFIFPPSDEQLKSGTASVVCLLNNFYPREAKVQWKVDNALQSGNSQESVTEQDSKDSTYSLSSTLTLSKADYEKHKVYACEVTHQGLSSPVTKSFNRGEC
